Residue numbers refer to the chain shown, from its start. Blank lines part the entries; values can stand above or below the binder they belong to.
How the values were obtained:
FAM19A5-M5 [1] = target: T1, FAM19A5-M5; experiment: ELISA on phage-displayed FAM19A5 mutants; y axis without label; no blank in the panel, lowest bars about 0.05
T1 construct: also called FAM19A5 mutant M5
T1 FAM19A5 mutant: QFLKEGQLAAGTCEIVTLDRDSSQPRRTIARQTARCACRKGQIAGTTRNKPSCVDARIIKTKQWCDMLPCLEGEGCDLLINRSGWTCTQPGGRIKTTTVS

FAM19A5 mutant M6 [2] = target: T2, FAM19A5 mutant M6 (human); experiment: as above
T2 construct: FAM19A5 with region 6 replaced by the consensus of FAM19A1-4; The entry already carries the changes
T2 chain: T1 FAM19A5 mutant with N49A, K50R, S52A, K60L, T61Q, K62R, Q63W, D66Q, L68E, P69L

FAM19A5 mutant M8 = target: T3, FAM19A5 mutant M8 (human); experiment: ELISA on phage-displayed FAM19A5 mutants; y axis without label
T3 construct: FAM19A5 with region 8 replaced by the consensus of FAM19A1-4; The entry already carries the changes
T3 chain: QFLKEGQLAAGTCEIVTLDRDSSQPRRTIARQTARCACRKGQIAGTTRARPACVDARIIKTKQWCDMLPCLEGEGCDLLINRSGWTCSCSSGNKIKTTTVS

FAM19A5-M1 = target: T4, FAM19A5-M1; experiment: ELISA on phage-displayed FAM19A5 mutants; y axis without label; no blank in the panel
T4 construct: also called FAM19A5 mutant M1
T4 FAM19A5 mutant: T1 FAM19A5 mutant with I15V, V16I, T17A, L18A, D19H, N49A, K50R, S52A

FAM19A5-M2 = target: T5, FAM19A5-M2; experiment: as above
T5 construct: also called FAM19A5 mutant M2
T5 FAM19A5 mutant: T1 FAM19A5 mutant with D21C, S22C, S23N, Q24K, P25N, N49A, K50R, S52A

FAM19A5-M3 = target: T6, FAM19A5-M3; experiment: as above
T6 construct: also called FAM19A5 mutant M3
T6 FAM19A5 mutant: T1 FAM19A5 mutant with R27I, T28E, I29E, A30R, R31S, N49A, K50R, S52A

FAM19A5-M5 [3] = target: T1, FAM19A5-M5; experiment: as above
FAM19A5 mutant M7 = target: T7, FAM19A5 mutant M7 (human); experiment: as above
T7 construct: FAM19A5 with region 7 replaced by the consensus of FAM19A1-4; The entry already carries the changes
T7 chain: T1 FAM19A5 mutant with N49A, K50R, S52A, G75E, D77K, L78T, I80P, N81D, R82N

FAM19A5-M4 = target: T8, FAM19A5-M4; experiment: as above
T8 construct: also called FAM19A5 mutant M4
T8 FAM19A5 mutant: T1 FAM19A5 mutant with A34V, R35K, A37S, R39F, K40P, N49A, K50R, S52A

FAM19A5 mutant M6 [4] = target: T2, FAM19A5 mutant M6; experiment: as above
[5] = target: T9, FAM19A5 fragment 5 mutant peptide F5-1 (#1) (human); experiment: ELISA on the coated F5 mutant peptide
T9 construct: The entry already carries the alanine substitution and Ser for Cys; also called mutant peptide #1
T9 peptide: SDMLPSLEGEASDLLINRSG
Experimental: (§1) Overlapping peptide fragments (F1-F6, see FIG. 9) of the human FAM19A5 protein were synthesized and conjugated to BSA. Binding of the different anti-FAM19A5 antibodies to the BSA-conjugated peptide fragments F1-F6 was determined by Western blot analysis or ELISA assay. For the Western blot analysis, BSA-conjugated FAM19A5 fragments F1-F6 were separated by SDS polyacrylamide gel electrophoresis and transferred to a nitrocellulose membrane by the standard procedure. The membrane was incubated with the anti-FAM19A5 antibody (e.g., 1-65, 2 μg/ml, 1-65-scFv-rabbit Fc-SSS), and the antigen-antibody complexes were detected with the appropriate secondary antibody conjugated with horse-radish peroxidase (anti-rabbit IgG (Fc specific)-HRP, 1:4000 dilution). For the ELISA assay, the following protocol was used. FAM19A5 fragment F1-F6 (diluted to 1 μg/mL in 50 mM carbonate buffer (Biosesang) or to 20 μg/mL for high concentration analysis) were used to coat the wells of 96-well immuno plates (Thermo Scientific) (100 μL/well) overnight at 4° C. and then subsequently washed twice in 1×PBS. The plates were then blocked with the blocking buffer (100 μL/well) for 1 hour at room temperature. During the 1-hour incubation, the relevant anti-FAM19A5 antibodies were diluted to 1 μg/mL (or 20 μg/mL for high concentration analysis) in the diluent buffer. Once the plates were washed (2× using 1×PBS), the diluted anti-FAM19A5 antibodies were added to the appropriate wells, and the plates were incubated at room temperature for 1 hour. The plates were subsequently washed for a total of five times using the washing buffer. Next, the ODP substrate (prepared by dissolving one ODP tablet (O-phenylenediamine Dihydrochloride, Thermo) into 9 mL of sterilized deionized water and 1 mL of 10× stable Peroxide Stable buffer (Theromo)) was added to each of the wells, and the color change reaction was allowed to occur for 10 minutes. This reaction was stopped by adding 100 μL of 2N H2SO4 (Daejung) to the wells. The absorption value of each of the wells was detected at 492 nm using a 96-well microplate reader (Molecular Device).
(§2) Next, to identify the specific amino acid residues within the epitope fragment F5 that the 1-65 and P2-C12 antibodies bind to, different amino acid residues of the F5 fragment were replaced with alanine as shown in Table 9 (below).

[6] = target: T10, FAM19A5 fragment 5 mutant peptide F5-4 (#4) (human); experiment: ELISA on the coated F5 mutant peptide
T10 construct: The entry already carries the alanine substitution and Ser for Cys; also called mutant peptide #4
T10 sequence (peptide, as listed by the source mutant): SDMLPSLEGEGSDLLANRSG
Experimental: as §1, §2

[7] = target: T11, FAM19A5 fragment 5 mutant peptide F5-3 (#3) (human); experiment: ELISA on the coated F5 mutant peptide
T11 construct: The entry already carries the alanine substitution and Ser for Cys; also called mutant peptide #3
T11 sequence (peptide, as listed by the source mutant): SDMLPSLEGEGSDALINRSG
Experimental: as §1, §2

[8] = target: T12, FAM19A5 fragment 5 mutant peptide F5-2 (#2) (human); experiment: ELISA on the coated F5 mutant peptide
T12 construct: The entry already carries the alanine substitution and Ser for Cys; also called mutant peptide #2
T12 sequence (peptide, as listed by the source mutant): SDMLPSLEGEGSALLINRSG
Experimental: as §1, §2

[9] = target: T13, FAM19A5 fragment 5 mutant peptide F5-5 (#5) (human); experiment: ELISA on the coated F5 mutant peptide
T13 construct: The entry already carries the alanine substitution and Ser for Cys; also called mutant peptide #5
T13 peptide: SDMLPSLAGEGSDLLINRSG
Experimental: as §1, §2

[10] = target: T14, FAM19A5 fragment 5 mutant peptide F5-6 (#6) (human); experiment: ELISA on the coated F5 mutant peptide
T14 construct: The entry already carries the alanine substitution and Ser for Cys; also called mutant peptide #6
T14 sequence (peptide, as listed by the source mutant): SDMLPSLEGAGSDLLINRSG
Experimental: as §1, §2

[11] = target: T15, FAM19A5 fragment 5 mutant peptide F5-8 (#8) (human); experiment: ELISA on the coated F5 mutant peptide
T15 construct: The entry already carries the alanine substitution and Ser for Cys; also called mutant peptide #8
T15 peptide: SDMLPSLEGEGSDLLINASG
Experimental: as §1, §2

FAM19A5 mutant M6 [12] = target: T2, FAM19A5 mutant M6; experiment: ELISA on phage-displayed FAM19A5 mutants; y axis without label

B1: Anti-FAM19A5 (P2-F07) (antibody, V domains shown)
VH: QSLEESGGRLVTPGTPLTLTCTASGFSLSSYYMNWVRQAPGKGLEWIGIIYPSGTTYYAGWAKGRFTISKTSTTVDLKITSPTSEDTATYFCARTVSGYFDIWGPGTLVTVSL
VL: ELDLTQTPPSLSASVGGTVTINCLASEDIYSALAWYQQKPGKPPTLLISGTSNLESGVPPRFSGSGSGTDYTLTIGGVQAEDAATYFCQGYSSYPLTFGAGTNVEIK
notes: Only variable domains are tied to the name
- binding result (FAM19A5-M5 [1]): binds
- binding result (FAM19A5 mutant M6 [2]): binds

B5: Anti-FAM19A5 (P2-A01) (antibody, V domains shown)
VH: QEQLVESGGRLVTPGTPLTLSCTASGFFLSGYYMSWVRQAPGKGLEWIGIIYPSGSTDYASWAKGRFTISKTSTTVDLKITTPTTEDTATYFCARVAGYVGYGYETFFDIWGPGTLVTVSL
VL: ELVMTQTPPSLSASVGETVRIRCLASEDIYSGISWYQQKPGKPPTLLIYGASNLESGVPPRFSGSGSGSDYTLTIGGVQAEDAATYYCLGGVTYSSTGTHLTFGAGTNVEIK
notes: as for B1
- binding result (FAM19A5-M5 [1]): binds
- binding result (FAM19A5 mutant M6 [2]): binds

B6: Anti-FAM19A5 (P2-C12) (antibody, V domains shown)
VH: QSLEESGGRLVTPGTPLTLTCTVSGFSLSTYAVTWVRQAPGKGLEWIGYINWRGGTSYANWAKGRFTISKTSSTTVDLKMTSPTTEDTATYFCARDASSGAAFGSYGMDPWGPGTLVTVSS
VL: ELDMTQTPSSVSAAVGGTVTIKCQASQSISSYLSWYQQKPGQPPKLLIYEASKLASGVPSRFSGSGYGTEFTLTISDLECADAATYYCQQGYSSTNVWNAFGGGTNVEIK
notes: Only variable domains are tied to the name; also called anti-FAM19A5 antibody P2-C12
- O.D (492nm) [5]: 0.056
- binding result [5]: no binding
- O.D (492nm) [6]: 3.86
- O.D (492nm) [7]: 3.84
- O.D (492nm) [8]: 3.65
- O.D (492nm) [9]: 3.49
- O.D (492nm) [10]: 0.095
- binding result [10]: no binding
- O.D (492nm) [11]: 0.1
- binding result [11]: no binding
- binding result (FAM19A5 mutant M6 [12]): no binding
- binding result (FAM19A5-M5 [1]): binds

B7: Anti-FAM19A5 (P1-F02) (antibody, V domains shown)
VH: QSLEESGGRLVTPGTPLTLTCTASGFSLSNYYMGWVRQAPGEGLEWIGIIYASGSTYYASWAKGRFTISKTSTTVDLKMTSLTTEDTATYFCARIDIGVGDYGWAYDRLDLWGQGTLVTVSS
VL: ELDMTQTPPSLSASVGETVRIRCLASEDIYSGISWYQQKPGKPPTLLIYGASNLESGVPPRFSGSGSGTDYTLTIGGVQAEDAATYYCLGGYSYSSITFGAGTNVEIK
notes: as for B1
- binding result (FAM19A5-M5 [1]): binds
- binding result (FAM19A5 mutant M6 [2]): binds

B8: Anti-FAM19A5 (15A9) (antibody, V domains shown)
VH: QVQLQESGPGLVKPSETLSLTCTVSGGSISSYYWSWIRQPPGKGLEWIGYIYPSGSTNYNPSLKSRVTISVDTSKNQFSLNLKSVTAVDTAVYYCARVNPFGYYYAMDVWGQGTTVTVSS
VL: DIQMTQSPSSLSASVGDRITISCRASQSISTSLNWYQQTPGKAPRLLIYGASTLQSGVPSRFSGGGSGTDFSLTITSLQPEDFATYYCQESASIPRTFGQGTKLDIK
notes: as for B1
- binding result (FAM19A5-M5 [3]): binds

Continued, values first:

- binding result (FAM19A5-M5 [1]): binds
- binding result (FAM19A5 mutant M6 [2]): binds
B2: Anti-FAM19A5 (P1-A08) (antibody, V domains shown)
VH: QSLEESGGRLVTPGTPLTLTCTASGFSLSTYYMSWVRQAPGKGLEWIGIVYPSGTTYYANWAKGRFTISTASTTVDLMITSPTTEDTATYFCARGDSFGYGLWGPGTLVTVSS
VL: ELVLTQSPSVQVNLGQTVSLTCTADTLSRSYASWYQQKPGQAPVLLIYRDTSRPSGVPDRFSGSSSGNTATLTISGAQAGDEADYYCATSDGSGSNYQYVFGGGTQLTVT
notes: as for B1

- binding result (FAM19A5-M5 [1]): binds
B3: Anti-FAM19A5 (P2-F11) (antibody, V domains shown)
VH: QEQLVESGGRLVTPGTTLTLTCTVSGFSLSSYGVSWVRQAPGKGLEWIGYIANNYNPHYASWAKGRFTISKTSSTTVDLKMTSLTTEDTATYFCARDNYGMDPWGPGTLVTVSS
VL: ELDLTQTPSSVSAAVGGTVTINCQASQSVYNNKNLAWYQQKPGQPPKLLIYAASTLASGVSSRFKGSGSGTQFTLTISDVQCDDAATYYCQGEFSCSSADCNAFGGGTELEIL
notes: as for B1

- binding result (FAM19A5 mutant M8): no binding
- binding result (FAM19A5-M1): binds
- binding result (FAM19A5-M2): binds
- binding result (FAM19A5-M3): binds
- binding result (FAM19A5-M5 [3]): binds
- binding result (FAM19A5 mutant M7): binds
- binding result (FAM19A5-M4): binds
- binding result (FAM19A5 mutant M6 [4]): binds
B4: Anti-FAM19A5 (13F7) (antibody, V domains shown)
VH: QVQLQEWGAGLLKPSETLSLTCAINAESFNGYSWTWIRQTPGKGLEWIGEISHFGSANYNPSLKSRATISADKSKNQFSLKLTSVTAVDTAVYYCARALRGTYSRFYYGMDVWGQGTTVTVSS
VL: DIVMTQTPLSLPVAPGEPASISCRSSQSLLHSNGYNYLDWYVQKPGQPPQLLIYLGSNRASGVPDRFSGSGSGTDFTLKISRVEAEDVGVYYCMQARQTPLTFGGGTKVEIK
notes: as for B1

From patent US20250236663A1 (NEURACLE SCIENCE, published 2025)
